Experimental data: patent US20240002437A1, “COMPOSITIONS AND METHODS OF TREATING INFLAMMATORY LUNG DISEASES” (priority 2020, published 2024)

Molecular target: T1, purified eNOS protein (Homo sapiens, UniProt P29474)
T1 sequence (P29474 1-1203): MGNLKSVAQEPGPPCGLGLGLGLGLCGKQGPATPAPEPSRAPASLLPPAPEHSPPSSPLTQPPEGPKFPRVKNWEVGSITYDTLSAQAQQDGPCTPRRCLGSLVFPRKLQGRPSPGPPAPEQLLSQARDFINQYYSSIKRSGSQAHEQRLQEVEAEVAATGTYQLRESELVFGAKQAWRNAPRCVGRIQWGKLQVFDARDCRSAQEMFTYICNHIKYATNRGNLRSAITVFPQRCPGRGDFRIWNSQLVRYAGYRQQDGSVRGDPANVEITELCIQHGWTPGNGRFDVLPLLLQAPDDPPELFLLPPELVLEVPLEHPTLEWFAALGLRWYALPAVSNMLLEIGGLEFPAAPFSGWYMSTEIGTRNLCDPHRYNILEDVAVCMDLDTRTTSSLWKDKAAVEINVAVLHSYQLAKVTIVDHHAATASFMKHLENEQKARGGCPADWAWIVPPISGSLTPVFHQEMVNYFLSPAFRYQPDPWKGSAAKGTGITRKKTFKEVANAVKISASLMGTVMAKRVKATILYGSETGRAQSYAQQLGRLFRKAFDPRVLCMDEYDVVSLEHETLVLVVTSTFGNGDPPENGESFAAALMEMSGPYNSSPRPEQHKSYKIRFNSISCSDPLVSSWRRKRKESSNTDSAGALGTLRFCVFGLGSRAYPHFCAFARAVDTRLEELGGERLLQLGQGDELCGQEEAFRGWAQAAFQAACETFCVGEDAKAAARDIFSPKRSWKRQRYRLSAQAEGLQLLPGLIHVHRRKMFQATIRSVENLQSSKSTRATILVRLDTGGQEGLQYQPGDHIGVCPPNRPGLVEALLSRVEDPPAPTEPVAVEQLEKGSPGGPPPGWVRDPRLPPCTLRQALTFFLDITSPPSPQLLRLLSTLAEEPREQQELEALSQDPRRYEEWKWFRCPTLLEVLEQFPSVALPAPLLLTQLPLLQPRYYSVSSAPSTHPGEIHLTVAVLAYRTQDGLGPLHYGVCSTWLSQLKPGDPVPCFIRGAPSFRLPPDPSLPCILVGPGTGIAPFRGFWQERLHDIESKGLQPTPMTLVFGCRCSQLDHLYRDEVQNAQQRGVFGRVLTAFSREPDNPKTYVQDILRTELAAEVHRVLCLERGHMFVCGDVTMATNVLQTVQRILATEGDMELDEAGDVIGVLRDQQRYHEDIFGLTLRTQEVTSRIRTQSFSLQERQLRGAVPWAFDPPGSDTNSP
Test: In vitro peptide binding assay (biotinylated d-peptide, streptavidin capture, blot)
Conditions: biotinylated d-peptide 0 to 5 μg, 1 hour room temperature
Protocol: Biotinylation of the decoy peptide (d-peptide) was performed using the Thermo Scientific EZ-Link Sulfo-NHS-LC-Biotinylation Kit. Briefly, Sulfo-NHS-LC-Biotin was mixed with d-peptide and the reaction mix was incubated at room temperature for 30 minutes. Different concentrations of the biotinylated d-peptide (0 to 5 μg) mixed with either purified eNOS protein or PKCα protein in a reaction mix containing PKC lipid activator were incubated at room temperature for 1 hour. Protein bound to the biotinylated d-peptide was captured using Thermo Scientific streptavidin agarose column and run on a 10% SDS-PAGE gel under reducing condition. The resulting blots were probed with antibodies to eNOS and PKCα protein respectively. Reactive bands were visualized using chemiluminescence on the LI-COR Odyssey image station.

Sequence: HRKKRRQRRITRKKTFKEVA [d-peptide]
- binding to eNOS: but not to eNOS
